Results on four substances are retold here after publication PMC11381880, “Action and cooperation in alginate degradation by three enzymes from the human gut bacterium Bacteroides eggerthii DSM 20697” (The Journal of Biological Chemistry, 2024).

One series deals with Glu13. Description: NMR. Particulars: 25 °C; 25 mM NaCl; 20 mM HEPES (starting pH 7.2), pH adjusted with HCl/NaOH; Folded recombinant BeKdgF as purified, 0.26 mM, no substrate or ligand added; metal loading not given.
The next series has as its system Glu66. The series can be described thus: NMR. Conditions: 25 °C; 25 mM NaCl; 20 mM HEPES (starting pH 7.2), pH adjusted with HCl/NaOH; Folded recombinant BeKdgF as purified, 0.26 mM, no substrate or ligand added; metal loading not given.
The next series concerns Asp21. The series can be described thus: NMR. Conditions: 25 °C; 25 mM NaCl; 20 mM HEPES (starting pH 7.2), pH adjusted with HCl/NaOH; Folded recombinant BeKdgF as purified, 0.26 mM, no substrate or ligand added; metal loading not given.
The next series has as its system Glu114. The series can be described thus: NMR. Conditions: 25 °C; 25 mM NaCl; 20 mM HEPES (starting pH 7.2), pH adjusted with HCl/NaOH; Folded recombinant BeKdgF as purified, 0.26 mM, no substrate or ligand added; metal loading not given.
The test system of another series is Asp102. The series can be described thus: NMR. Conditions: 25 °C; 25 mM NaCl; 20 mM HEPES (starting pH 7.2), pH adjusted with HCl/NaOH; Folded recombinant BeKdgF as purified, 0.26 mM, no substrate or ligand added; metal loading not given.
Another series deals with Glu17. Description: NMR. Conditions: 25 °C; 25 mM NaCl; 20 mM HEPES (starting pH 7.2), pH adjusted with HCl/NaOH; Folded recombinant BeKdgF as purified, 0.26 mM, no substrate or ligand added; metal loading not given.
In a further series the test system is Asp110. Description: NMR. Conditions: 25 °C; 25 mM NaCl; 20 mM HEPES (starting pH 7.2), pH adjusted with HCl/NaOH; Folded recombinant BeKdgF as purified, 0.26 mM, no substrate or ligand added; metal loading not given.
For series [1], the target named is BePL17, PL17 subfamily 2 alginate lyase from Bacteroides eggerthii DSM 20697 (Bacteroides eggerthii DSM 20697). The series can be described thus: SEC; elution on HiLoad Superdex 200 pg 16/600; data not shown.
Series [2] has as its target BeKdgF, KdgF-like metalloprotein from Bacteroides eggerthii DSM 20697 (Bacteroides eggerthii DSM 20697). Description: NMR 15N relaxation (rotational correlation time from T1/T2); 0.43 mM 13C-15N-labelled BeKdgF, 25 mM Na2HPO4 pH 7.2, 50 mM NaCl, 25 °C, 800 MHz.
For series [3] the target is unchanged. Description: SEC-MALS; BeKdgF at 1 mg/mL, 40 ul on Superdex 200 Increase 10/300 GL, 50 mM HEPES, 150 mM NaCl, pH 7.7, ice-cold buffer, 0.5 ml/min; DAWN8+ detector; equilibrium of tetramer and dimer.
The target of another series is T1, BeKdgF (Bacteroides eggerthii, UniProt A0A380Z821).
T1 construct: gene DW701_08695; no signal peptide; theoretical mass 14,137 Da; locus tag BACEGG_03250 inferred from gene order in PUL BACEGG_03245-03254 (PL17 = BACEGG_03249)
T1 sequence (A0A380Z821 1-114): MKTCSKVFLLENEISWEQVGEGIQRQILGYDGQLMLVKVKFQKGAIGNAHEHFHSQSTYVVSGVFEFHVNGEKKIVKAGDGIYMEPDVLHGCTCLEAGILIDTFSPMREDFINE
The series can be described thus: loss of absorbance at […] nm, Michaelis-Menten fit, spontaneous conversion subtracted. It is filed as biochemical. Particulars: 50 mM HEPES, 150 mM NaCl, pH 7.0; 20 nM enzyme, no metal added; saturation not achieved (estimate); substrate made from polyM by BePL17.

Several values for one entry are separate records, joined by “and”; a condition that tells them apart may be missing. Equal entries are not always repeated.

For the substance “BeKdgF (KdgF-like cupin metalloprotein; annotated Unk3 in PULDB) (Bacteroides eggerthii DSM 20697)”, the pKa in the series with Glu13 was 5.0 ± 0.2; in the series on Glu66, 5.6±0.1 and 5.1±0.2; in the series with Asp21, 5.0±0.2; in the series with Glu114, 5.1±0.1 and 5.2±0.1; with Asp102, 5.9 ± 0.1; with Glu17, 4.9±0.1. The pKa in the series on Asp110 turned out to be 5.5±0.2.

Turning to “BePL17, PL17 subfamily 2 alginate lyase from Bacteroides eggerthii DSM 20697 (enzyme)”, the stoichiometry N in series [1] came out at 2.

In the case of “BeKdgF, KdgF-like metalloprotein from Bacteroides eggerthii DSM 20697 (enzyme)”, the stoichiometry N in series [2] was 2. In [3], the percent of the protein as dimer came out at 93.5%; the percent of the protein as tetramer is 6.5%; the stoichiometry N is 4 and 2.

With “4-deoxy-β-L-threo-hex-4-enopyranuronic acid [compound 1]”, on BeKdgF, the Km was 1140 ± 560 µM.
